In PMC4962319:

Target: TIA-1-GLuc1 (UniProt P31483)
Test: split reporter (BiFC, NanoBiT); split Gaussia luciferase protein-fragment complementation assay (PCA); GLuc1 and GLuc2 fusions coexpressed in live HEK293T cells, luminescence read 48 h after transfection with native coelenterazine

Chain of UniProt P31483 (P31483 whole entry, the tested form may be a part): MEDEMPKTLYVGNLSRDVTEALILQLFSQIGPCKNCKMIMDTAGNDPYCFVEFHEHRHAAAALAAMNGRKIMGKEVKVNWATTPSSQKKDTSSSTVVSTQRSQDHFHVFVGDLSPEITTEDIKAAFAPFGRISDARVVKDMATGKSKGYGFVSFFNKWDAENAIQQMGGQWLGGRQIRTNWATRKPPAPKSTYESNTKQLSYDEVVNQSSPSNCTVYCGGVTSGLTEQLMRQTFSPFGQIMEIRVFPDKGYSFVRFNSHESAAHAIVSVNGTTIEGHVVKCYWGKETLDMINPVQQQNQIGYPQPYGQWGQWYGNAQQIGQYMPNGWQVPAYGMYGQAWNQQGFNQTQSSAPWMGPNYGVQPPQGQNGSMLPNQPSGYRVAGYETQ

fold of PCA interaction signal over wildtype Tau: > 6 fold
Substance: TauE14-GLuc2 (from UniProt P10636-6 1-383) (natural protein)
